Measured values as given in PMC12432127, “Assessing the potential of bacterial signal peptides for radiopharmaceutical applications” (Scientific Reports, 2025).
Residues, ends and D or L forms follow the SMILES beside them. Groups on a side chain read outwards from the residue. No end group written: not given here. *: point of attachment. FITC = O=C1OC2(c3ccc(O)cc3Oc3cc(O)ccc32)c2ccc(NC(=S)*)cc21; DOTA = O=C(O)CN1CCN(CC(=O)O)CCN(CC(=O)*)CCN(CC(=O)O)CC1; Ahx = NCCCCCC(=O)O; For = O=C*

Key:
[1] = molecular target: T1, FPR1 (Homo sapiens, UniProt P21462); assay: Cell internalization of radiotracer, FPR1 transfected HEK293T cells; format: cell-based; settings: 1000-fold excess, all time points
T1 construct: expressed in transfected cells; host or cells: HEK293T (transient, jetPEI)
T1 sequence (P21462 1-350): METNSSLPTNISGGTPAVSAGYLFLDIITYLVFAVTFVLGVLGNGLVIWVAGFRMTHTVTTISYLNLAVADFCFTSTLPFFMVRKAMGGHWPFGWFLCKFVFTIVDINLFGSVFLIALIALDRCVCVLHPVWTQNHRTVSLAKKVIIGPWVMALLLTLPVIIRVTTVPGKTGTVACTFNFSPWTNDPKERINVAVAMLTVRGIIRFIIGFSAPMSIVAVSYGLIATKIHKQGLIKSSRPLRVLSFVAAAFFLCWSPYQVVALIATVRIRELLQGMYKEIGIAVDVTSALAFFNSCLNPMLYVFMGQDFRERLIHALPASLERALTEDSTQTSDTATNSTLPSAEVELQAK
Method: The medium was removed from the wells and replaced by fresh complete growth medium (1.3 mL per well). The inhibitor solution BOC-FLFLF (1000-fold excess against the radiotracer, in PBS/DMSO) was added to the wells in the bottom row (100 µL per well). A solution of PBS and DMSO in the same ratio as the inhibitor solution was added to the wells of the top row (100 µL per well). To each well, the radiotracer solution in the desired concentration was added (100 µL per well). The plate was incubated at 37 °C for the time specified for each experiment. The supernatant was removed, and the cells were placed on ice and rinsed twice with ice cold PBS (1 mL per well). Sodium hydroxide (1 M, 2 × 1 mL) was added to detach the cells and the suspension was collected in counting tubes. The tubes were analyzed with an HIDEX gamma counter (HIDEX, Turku, Finland) using the appropriate detection window for the corresponding radionuclide.

[2] = in vivo; design: species or system mice; settings: male, NOD/SCID, mouse, iv, 250 pmol, total radioactivity
Method: (§1) All experiments involving animals were performed in accordance with an animal experimentation license approved by the Zurich Cantonal Veterinary Office, Switzerland (Jason P. Holland; license number ZH095/2023), and in compliance with the […] Animal Welfare Act. This study is reported in accordance with the ARRIVE guidelines (https://arriveguidelines.org). Six to eight-week old male NOD/SCID mice (17-20 g) were obtained from Charles River Laboratories (Lyon, France). Mice were provided with food and water ad libitum. For planar scintigraphy imaging and ex vivo biodistribution studies, mice were injected with 100 μL sterile saline formulations of ~ 250 pmol (~ 10 MBq) [^177Lu]Lu-[…] by intravenous tail-vein injection and anesthetized with isoflurane (2-4% in air). Imaging was performed on Gamma-eye scanner (Bioemtech, Greece) at 5 min and 1 h p.i. Directly after imaging at 1 h p.i., animals were euthanised by isoflurane asphyxiation followed by terminal exsanguination. A total of 13 tissues were removed, rinsed in water, dried in air for approx. 2 min., weighed and counted on a calibrated gamma counter for accumulation of activity. The mass of radiotracer formulation injected into each animal was measured and used to determine the total number of counts per minute (cpm) injected into each mouse by comparison to a standard syringe of known activity and mass.

[3] = Stability in human plasma (radio-HPLC); format: in vitro ADME
Method: The radiolabelled compound (50 µL) was added to male human AB plasma (500 µL, Sigma Aldrich, USA, male AB) and incubated at 37 °C. Samples of 100 µL were taken at selected time points. The plasma proteins were precipitated with acetonitrile (-20 °C) and the precipitate was centrifuged for 1 min at 1500 rpm. The supernatant was analyzed by analytical radio-HPLC.

[4] = design: species or system mice; settings: mouse, in vivo, iv
Method: as §1

[5] = molecular target: T2, f-MVPIK(FITC)I bacterial signal peptide derivative; assay: confocal fluorescence binding to transfected HEK293T cells
T2 chain: For-MVPIK(FITC)I

[6] = molecular target: T3, f-MVPIK(TAMRA)I bacterial signal peptide derivative; assay: as above
T3 chain: For-MVPIK(TAMRA)I

With BOC-FLFLF the “effect of blocking agent on cell-bound activity of the radiotracer” value [1] was “considerably reduced the cell-bound activity”.

Molecule `CC[C@H](C)[C@H](NC(=O)[C@H](CCCCNC(=O)CCCCCNC(=O)CN1CCN(CC(=O)O)CCN(CC(=O)O)CCN(CC(=O)O)CC1)NC(=O)[C@@H](NC(=O)[C@@H]1CCCN1C(=O)[C@@H](NC(=O)[C@H](CCSC)NC=O)C(C)C)[C@@H](C)CC)C(=O)O` [[^177Lu]Lu-f-MVPIK(Ahx-DOTA)I, metal not drawn] (For-MVPIK([Ahx-DOTA])I-OH) has a tissue uptake at 1 h ([2]; biodistribution blood) of 0.12 ± 0.02 %ID/g, a tissue uptake at 1 h ([2]; biodistribution bone) of 0.75 ± 0.13 %ID/g and a tissue uptake at 1 h ([2]; biodistribution heart) of 0.09 ± 0.01 %ID/g. It also gave a tissue uptake at 1 h ([2]; biodistribution lg intestine) of 0.32 ± 0.12 %ID/g, a tissue uptake at 1 h ([2]; biodistribution lungs) of 0.79 ± 0.12 %ID/g and a tissue uptake at 1 h ([2]; biodistribution muscle) of 0.18 ± 0.03 %ID/g. It also gave a tissue uptake at 1 h ([2]; biodistribution pancreas) of 0.1 ± 0.02 %ID/g, a tissue uptake at 1 h ([2]; biodistribution skin) of 0.49 ± 0.08 %ID/g and a tissue uptake at 1 h ([2]; biodistribution sm intestine) of 0.45 ± 0.09 %ID/g. For the same molecule, the tissue uptake at 1 h ([2]; biodistribution stomach) was 0.17 ± 0.05 %ID/g, the tissue uptake at 1 h ([2]; uptake kidneys) was 3.35 ± 0.19 %ID/g and the tissue uptake at 1 h ([2]; uptake liver) was 3.02 ± 0.23 %ID/g. The tissue uptake at 1 h ([2]; uptake spleen) was 4.43 ± 0.38 %ID/g, the “more hydrophilic fragment (partial degradation)” value [3] was 24% and the “state of conjugate in human plasma” value [3] was “completely oxidized”. The “location of administered activity in scintigraphy images” value [4] was “the majority of the administered activity was found in the bladder” and the “residual activity in scintigraphy images” value [4] was “only minimal residual activity”.

B1: FPR1 (protein)
chain: METNSSLPTNISGGTPAVSAGYLFLDIITYLVFAVTFVLGVLGNGLVIWVAGFRMTHTVTTISYLNLAVADFCFTSTLPFFMVRKAMGGHWPFGWFLCKFVFTIVDINLFGSVFLIALIALDRCVCVLHPVWTQNHRTVSLAKKVIIGPWVMALLLTLPVIIRVTTVPGKTGTVACTFNFSPWTNDPKERINVAVAMLTVRGIIRFIIGFSAPMSIVAVSYGLIATKIHKQGLIKSSRPLRVLSFVAAAFFLCWSPYQVVALIATVRIRELLQGMYKEIGIAVDVTSALAFFNSCLNPMLYVFMGQDFRERLIHALPASLERALTEDSTQTSDTATNSTLPSAEVELQAK
With B1 the Kd [5] was 1.1 nM and the Kd [6] was 3.8 nM.
